“And” between values parts separate entries of the source, which are not always exact repeats. Equal entries are not always repeated.
Columns and labels:
[1] = target: the molecule itself; assay: spatial intensity distribution analysis (SpIDA) of confocal images; basolateral membrane of intact cells treated with antagonist for 90 min at 37 °C (SB242084 50 nM, SB243213 50 nM or RS102221 100 nM); one-population model; QB against monomeric P-M-A206K eGFP
[2] = target: the molecule itself; assay: spatial intensity distribution analysis (SpIDA) of confocal images; basolateral membrane of intact cells induced with varying doxycycline, not treated with ligand (also vehicle, and after washout of antagonists with 60 min recovery); one-population model; QB against monomeric P-M-A206K eGFP

B1: human 5-HT2C receptor fused at its carboxyl terminus to A206K eGFP (5-HT2C-A206K eGFP) (receptor, UniProt P28335 33-458, looked up)
chain: IVTDIFNTSDGGRFKFPDGVQNWPALSIVIIIIMTIGGNILVIMAVSMEKKLHNATNYFLMSLAIADMLVGLLVMPLSLLAILYDYVWPLPRYLCPVWISLDVLFSTASIMHLCAISLDRYVAIRNPIEHSRFNSRTKAIMKIAIVWAISIGVSVPIPVIGLRDEEKVFVNNTTCVLNDPNFVLIGSFVAFFIPLTIMVITYCLTIYVLRRQALMLLHGHTEEPPGLSLDFLKCCKRNTAEEENSANPNQDQNARRRKKKERRPRGTMQAINNERKASKVLGIVFFVFLIMWCPFFITNILSVLCEKSCNQKLMEKLLNVFVWIGYVCSGINPLVYTLFNKIYRRAFSNYLRCNYKVEKKPPVRQIPRVAATALSGRELNVNIYRHTNEPVIEKASDNEPGIEMQVENLELPVNPSSVVSERISSV
notes: serotonin 5-hydroxytryptamine 2C (5-HT2C) receptor, human; construct in pEGFPN1, a gift of Dr. K. Herrick-Davis, subcloned into pcDNA5/FRT/TO; also called 5-HT2C-eGFP; serotonin 5-hydroxytryptamine 2C receptor; not shown: A206K eGFP, C-terminal, kept
[1]
  average quantal brightness relative to monomeric P-M-A206K eGFP, after SB242084 (50 nM, 90 min): 1.46 fold
[2]
  average quantal brightness relative to monomeric P-M-A206K eGFP: 1.85 times
  stoichiometry N: 2 and 4

Source: paper PMC4432300, “Regulation of Oligomeric Organization of the Serotonin 5-Hydroxytryptamine 2C (5-HT2C) Receptor Observed by Spatial Intensity Distribution Analysis*” (The Journal of Biological Chemistry, 2015)
